Test [1] addresses FcγRIIa (low affinity immunoglobulin gamma Fc region receptor II-a) (human) (UniProt P12318). The experiment in a line: co-immunoprecipitation with FcγRIIa from activated platelets, mass spectrometry of the excised band.
Test [2] has the same target. Nature of the test: cell-based or functional assay.
Test [3] concerns the target activated GP IIb-IIIa (human, UniProt P08514 32-1039; P05106 27-788). Nature of the test: cell-based or functional assay.

The results in this text go back to patent publication US20250334575A1 (UNIVERSITY OF VERMONT AND STATE AGRICULTURE COLLEGE, published 2025).

FcγRIIa (low affinity immunoglobulin gamma Fc region receptor II-a) (human), sequence (P12318 34-317 limits assumed, form in doubt): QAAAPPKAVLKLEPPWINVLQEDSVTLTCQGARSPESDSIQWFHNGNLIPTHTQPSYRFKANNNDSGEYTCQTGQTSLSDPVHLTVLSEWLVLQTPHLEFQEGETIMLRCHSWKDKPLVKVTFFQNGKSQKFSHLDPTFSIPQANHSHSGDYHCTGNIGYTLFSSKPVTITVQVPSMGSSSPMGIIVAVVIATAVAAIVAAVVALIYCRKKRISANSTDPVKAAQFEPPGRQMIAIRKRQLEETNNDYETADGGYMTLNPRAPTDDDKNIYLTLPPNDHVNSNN
activated GP IIb-IIIa, sequence (P08514 32-1039, chain 1 of 2): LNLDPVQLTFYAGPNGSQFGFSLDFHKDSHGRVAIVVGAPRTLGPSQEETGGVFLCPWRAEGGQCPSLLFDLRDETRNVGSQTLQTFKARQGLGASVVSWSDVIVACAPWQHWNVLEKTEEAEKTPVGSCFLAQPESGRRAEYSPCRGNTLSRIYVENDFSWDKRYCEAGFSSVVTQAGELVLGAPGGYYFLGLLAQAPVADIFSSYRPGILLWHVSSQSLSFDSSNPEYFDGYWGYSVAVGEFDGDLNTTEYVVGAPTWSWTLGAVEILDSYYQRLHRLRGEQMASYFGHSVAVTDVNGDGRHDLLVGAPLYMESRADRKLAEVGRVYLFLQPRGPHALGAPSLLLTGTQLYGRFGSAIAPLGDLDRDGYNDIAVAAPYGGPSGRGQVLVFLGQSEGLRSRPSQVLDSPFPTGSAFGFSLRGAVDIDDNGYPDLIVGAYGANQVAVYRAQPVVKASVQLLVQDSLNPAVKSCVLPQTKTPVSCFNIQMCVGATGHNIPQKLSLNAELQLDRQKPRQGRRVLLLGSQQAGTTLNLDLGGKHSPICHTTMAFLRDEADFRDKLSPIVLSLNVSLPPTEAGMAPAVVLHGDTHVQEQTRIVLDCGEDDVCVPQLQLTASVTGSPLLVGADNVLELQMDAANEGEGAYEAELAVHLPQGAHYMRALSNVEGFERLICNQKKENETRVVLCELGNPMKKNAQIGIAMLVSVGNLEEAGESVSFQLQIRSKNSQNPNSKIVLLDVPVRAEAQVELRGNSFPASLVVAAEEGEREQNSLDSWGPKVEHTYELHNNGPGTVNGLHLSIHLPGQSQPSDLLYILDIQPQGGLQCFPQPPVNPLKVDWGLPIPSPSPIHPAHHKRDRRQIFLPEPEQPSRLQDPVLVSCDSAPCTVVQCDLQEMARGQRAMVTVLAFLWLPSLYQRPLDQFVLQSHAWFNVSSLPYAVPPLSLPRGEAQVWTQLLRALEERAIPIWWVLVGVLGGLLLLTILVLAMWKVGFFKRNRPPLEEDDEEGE
activated GP IIb-IIIa, sequence (P05106 27-788, chain 2 of 2): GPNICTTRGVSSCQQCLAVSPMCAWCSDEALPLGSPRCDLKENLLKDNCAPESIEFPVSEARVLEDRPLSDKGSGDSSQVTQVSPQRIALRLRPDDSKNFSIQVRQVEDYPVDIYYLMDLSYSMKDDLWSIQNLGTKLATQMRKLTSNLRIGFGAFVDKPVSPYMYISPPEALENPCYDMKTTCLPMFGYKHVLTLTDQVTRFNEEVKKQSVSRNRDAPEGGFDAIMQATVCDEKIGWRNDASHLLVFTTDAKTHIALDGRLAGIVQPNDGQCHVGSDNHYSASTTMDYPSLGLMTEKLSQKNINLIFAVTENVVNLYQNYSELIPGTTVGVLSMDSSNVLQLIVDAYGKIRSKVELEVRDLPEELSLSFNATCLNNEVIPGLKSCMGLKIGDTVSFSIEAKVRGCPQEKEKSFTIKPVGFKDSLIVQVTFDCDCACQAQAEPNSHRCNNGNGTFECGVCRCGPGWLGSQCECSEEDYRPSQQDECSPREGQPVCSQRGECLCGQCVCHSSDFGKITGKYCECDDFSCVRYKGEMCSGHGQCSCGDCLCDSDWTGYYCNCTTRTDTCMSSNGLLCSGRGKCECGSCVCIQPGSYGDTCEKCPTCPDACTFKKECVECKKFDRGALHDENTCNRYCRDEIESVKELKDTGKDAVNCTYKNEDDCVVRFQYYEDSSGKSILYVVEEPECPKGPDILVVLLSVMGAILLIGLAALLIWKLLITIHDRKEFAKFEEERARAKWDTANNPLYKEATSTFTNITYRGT

gelsolin (from UniProt P06396 1-731) registered a share of the protein content of the 90 kDa band co-immunoprecipitated with FcγRIIa in test [1] of 6%.
Turning to nexilin (from UniProt Q0ZGT2 1-675), the share of the protein content of the 75 kDa band co-immunoprecipitated with FcγRIIa in test [1] came out at 3%.
In test [1], “SRC kinase Lyn (from UniProt P07948 2-512) (enzyme)” registered a share of the protein content of the 55 kDa band co-immunoprecipitated with FcγRIIa of 1%.
In test [1], actin yielded a share of the protein content of the 55 kDa band co-immunoprecipitated with FcγRIIa of 3% and a share of the protein content of the 75 kDa band co-immunoprecipitated with FcγRIIa of 1%.
For “coagulation Factor V (from UniProt P12259 29-2224)”, the share of the protein content of the 75 kDa band co-immunoprecipitated with FcγRIIa in test [1] was 4%.
Consider filamin, for which the share of the protein content of the 90 kDa band co-immunoprecipitated with FcγRIIa in test [1] was determined as 1%.

B1: fibrinogen (other, human)
chain 1: ADSGEGDFLAEGGGVRGPRVVERHQSACKDSDWPFCSDEDWNYKCPSGCRMKGLIDEVNQDFTNRINKLKNSLFEYQKNNKDSHSLTTNIMEILRGDFSSANNRDNTYNRVSEDLRSRIEVLKRKVIEKVQHIQLLQKNVRAQLVDMKRLEVDIDIKIRSCRGSCSRALAREVDLKDYEDQQKQLEQVIAKDLLPSRDRQHLPLIKMKPVPDLVPGNFKSQLQKVPPEWKALTDMPQMRMELERPGGNEITRGGSTSYGTGSETESPRNPSSAGSWNSGSSGPGSTGNRNPGSSGTGGTATWKPGSSGPGSTGSWNSGSSGTGSTGNQNPGSPRPGSTGTWNPGSSERGSAGHWTSESSVSGSTGQWHSESGSFRPDSPGSGNARPNNPDWGTFEEVSGNVSPGTRREYHTEKLVTSKGDKELRTGKEKVTSGSTTTTRRSCSKTVTKTVIGPDGHKEVTKEVVTSEDGSDCPEAMDLGTLSGIGTLDGFRHRHPDEAAFFDTASTGKTFPGFFSPMLGEFVSETESRGSESGIFTNTKESSSHHPGIAEFPSRGKSSSYSKQFTSSTSYNRGDSTFESKSYKMADEAGSEADHEGTHSTKRGHAKSRPVRGIHTSPLGKPSLSP
chain 2: QGVNDNEEGFFSARGHRPLDKKREEAPSLRPAPPPISGGGYRARPAKAAATQKKVERKAPDAGGCLHADPDLGVLCPTGCQLQEALLQQERPIRNSVDELNNNVEAVSQTSSSSFQYMYLLKDLWQKRQKQVKDNENVVNEYSSELEKHQLYIDETVNSNIPTNLRVLRSILENLRSKIQKLESDVSAQMEYCRTPCTVSCNIPVVSGKECEEIIRKGGETSEMYLIQPDSSVKPYRVYCDMNTENGGWTVIQNRQDGSVDFGRKWDPYKQGFGNVATNTDGKNYCGLPGEYWLGNDKISQLTRMGPTELLIEMEDWKGDKVKAHYGGFTVQNEANKYQISVNKYRGTAGNALMDGASQLMGENRTMTIHNGMFFSTYDRDNDGWLTSDPRKQCSKEDGGGWWYNRCHAANPNGRYYWGGQYTWDMAKHGTDDGVVWMNWKGSWYSMRKMSMKIRPFFPQQ
chain 3: YVATRDNCCILDERFGSYCPTTCGIADFLSTYQTKVDKDLQSLEDILHQVENKTSEVKQLIKAIQLTYNPDESSKPNMIDAATLKSRKMLEEIMKYEASILTHDSSIRYLQEIYNSNNQKIVNLKEKVAQLEAQCQEPCKDTVQIHDITGKDCQDIANKGAKQSGLYFIKPLKANQQFLVYCEIDGSGNGWTVFQKRLDGSVDFKKNWIQYKEGFGHLSPTGTTEFWLGNEKIHLISTQSAIPYALRVELEDWNGRTSTADYAMFKVGPEADKYRLTYAYFAGGDAGDAFDGFDFGDDPSDKFFTSHNGMQFSTWDNDNDKFEGNCAEQDGSGWWMNKCHAGHLNGVYYQGGTYSKASTPNGYDNGIIWATWKTRWYSMKKTTMKIIPFNRLTIGEGQQHHLGGAKQAGDV
In the case of B1, in test [2], the fold induction of ADP-induced activation of platelets (surface expression of P-selectin) after addition of fibrinogen was 1.5 fold and the fold induction of ADP-induced activation of platelets by added fibrinogen after pretreatment with IV.3 (100 µg/ml) worked out at 0.9 fold. Besides, the “fold induction of ADP-induced activation of platelets by added fibrinogen in the presence of tirofiban (0.5 µg/ml)” value in test [3] amounted to 1.2 fold. Further, in test [1], the share of the protein content of the 55 kDa band co-immunoprecipitated with FcγRIIa was determined as 33%, the share of the protein content of the 75 kDa band co-immunoprecipitated with FcγRIIa amounted to 24% and the share of the protein content of the 90 kDa band co-immunoprecipitated with FcγRIIa is 80%.

B2: coagulation Factor XIII (enzyme, human, UniProt P00488 2-732, looked up)
chain: SETSRTAFGGRRAVPPNNSNAAEDDLPTVELQGVVPRGVNLQEFLNVTSVHLFKERWDTNKVDHHTDKYENNKLIVRRGQSFYVQIDFSRPYDPRRDLFRVEYVIGRYPQENKGTYIPVPIVSELQSGKWGAKIVMREDRSVRLSIQSSPKCIVGKFRMYVAVWTPYGVLRTSRNPETDTYILFNPWCEDDAVYLDNEKEREEYVLNDIGVIFYGEVNDIKTRSWSYGQFEDGILDTCLYVMDRAQMDLSGRGNPIKVSRVGSAMVNAKDDEGVLVGSWDNIYAYGVPPSAWTGSVDILLEYRSSENPVRYGQCWVFAGVFNTFLRCLGIPARIVTNYFSAHDNDANLQMDIFLEEDGNVNSKLTKDSVWNYHCWNEAWMTRPDLPVGFGGWQAVDSTPQENSDGMYRCGPASVQAIKHGHVCFQFDAPFVFAEVNSDLIYITAKKDGTHVVENVDATHIGKLIVTKQIGGDGMMDITDTYKFQEGQEEERLALETALMYGAKKPLNTEGVMKSRSNVDMDFEVENAVLGKDFKLSITFRNNSHNRYTITAYLSANITFYTGVPKAEFKKETFDVTLEPLSFKKEAVLIQAGEYMGQLLEQASLHFFVTARINETRDVLAKQKSTVLTIPEIIIKVRGTQVVGSDMTVTVEFTNPLKETLRNVWVHLDGPGVTRPMKKMFREIRPNSTVQWEEVCRPWVSGHRKLIASMSSDSLRHVYGELDVQIQRRPSM
B2: the “fold induction of ADP-induced activation of platelets by added Factor XIII in the presence of tirofiban (0.5 µg/ml)” value in test [3] was 0.8 fold. Also, in test [1], the share of the protein content of the 75 kDa band co-immunoprecipitated with FcγRIIa came out at 38% and the share of the protein content of the 90 kDa band co-immunoprecipitated with FcγRIIa stood at 1%.
